This data set concerns the molecule itself. The data set can be described thus: SEC.

As a reminder, the stoichiometry N is the number of molecules, sites or subunits per partner or assembly.

B1: recombinant His-tagged TRUSS_(1-797) (natural protein, UniProt Q9JLV2 1-797, looked up)
chain: MAAAPAAAGAGASRGRRLAATAAAWGGWGGRPRPGNILLQLRQGQLTGRGLVRAVQFTETFLTERDKLSKWSGIPQLLLKLYATSHLHSDFVECQSILKEISPLLSMEAMAFVTEDRKFTQEATYPNTYIFDLFGGVDLLVEILMRPTISIRGQKLKISDEMSKDCLSILYNTCVCTEGVTKRLAEKNDFVIFLFTLMTSKKTFLQTATLIEDILGVKKEMIRLDEVPNLSSLVSNFDQQQLANFCRILAVTISEMDTGNDDKHTLLAKNAQQKKSLSLGPSAAEINQAALLSIPGFVERLCKLATRKVSESTGTASFLQELEEWYTWLDNALVLDALMRVANEESEHNQAPTVFPSLGTSEEGGLPHTSARAQLPQSMKIMHEIMYKLEVLYVLCVLLMGRQRNQVHRMIAEFKLIPGLNNLFDKLIWRKHSASALVLHGHNQNCDCSPDITLKIQFLRLLQSFSDHHENKYLLLNNQELNELSAISLKANIPEVEAVLNTDRSLVCDGKRGLLTRLLQVMKKEPAESSFRFWQARAVESFLRGTTSYADQMFLLKRGLLEHILYCIVDSECKSRDVLQSYFDLLGELMKFNVDAFKRFNKYINTDAKFQVFLKQINSSLVDSNMLVRCVTLSLDRFENQVDMKVAEVLSECRLLAYISQVPTQMSFLFRLINIIHVQTLTQENVSCLNTSLVILMLARRKERLPLYLRLLQRMEHSKKYPGFLLNNFHNLLRFWQQHYLHKDKDSTCLENSSCISFSYWKETVSILLNPDRQSPSALVSYIEEPYMDIDRDFTEE
Consider B1, for which the “stoichiometry N” value is 3.

The record behind these values is publication PMC2952493 (Biochemistry, 2010).
